Assay results reported in the Human Domainome abundance scans (Beltran et al. 2025).
± gives the uncertainty stated by the source.

B1: Homeobox protein SIX3, residues 212 to 262; numbered along this chain, O95343 (parent)
chain: CFKERTRSLLREWYLQDPYPNPSKKRELAQATGLTPTQVGNWFKNRRQRDR

Variants of: B1
Assay: abundance fitness (aPCA) (normalised: wild type 0, dead -1); higher = more abundant; growth selection in yeast, the domain comes from the species named
Details: Homo sapiens

First: CFKERTRSLLREWYLQDPYPNPSKKRELAQQTGLTPTQVGNWFKNRRQRDR [A31Q]
Second: CFKERTRSLLREWYLQDPYPNPSKKRELAQFTGLTPTQVGNWFKNRRQRDR [A31F]
The abundance fitness of the first is higher: -0.023 ± 0.077 for the first, -0.749 ± 0.18 for the second.

First: CFKERTRSLLREWYLQDPYPNPSKKRELAQWTGLTPTQVGNWFKNRRQRDR [A31W]
Second: CFKERTRSLLREWYLQDPYPNPSKKRELAQTTGLTPTQVGNWFKNRRQRDR [A31T]
The abundance fitness of the first is lower: -0.326 ± 0.052 for the first, -0.147 ± 0.063 for the second.

Compared with CFKERTRSLLREWYLQDPYPNPSKKRELAQETGLTPTQVGNWFKNRRQRDR [A31E], CFKERTRSLLREWYLQDPYPNPSKKRELAQYTGLTPTQVGNWFKNRRQRDR [A31Y] is lower in abundance fitness: -0.076 ± 0.048 for the first, -0.349 ± 0.069 for the second.

CFKERTRSLLREWYLQDPYPNPSKKRELAQNTGLTPTQVGNWFKNRRQRDR [A31N] and CFKERTRSLLREWYLQDPYPNPSKKRELAQDTGLTPTQVGNWFKNRRQRDR [A31D] are within error of each other in abundance fitness: -0.506 ± 0.16 for the first, -0.475 ± 0.12 for the second.

CFKERTRSLLREWYLQDPYPNPSKKRELAQSTGLTPTQVGNWFKNRRQRDR [A31S] and CFKERTRSLLREWYLQDPYPNPSKKRELAQKTGLTPTQVGNWFKNRRQRDR [A31K] are within error of each other in abundance fitness: -0.186 ± 0.06 for the first, -0.094 ± 0.094 for the second.

Going from CFKERTRSLLREWYLQDPYPNPSKKRELAQPTGLTPTQVGNWFKNRRQRDR [A31P] to CFKERTRSLLREWYLQDPYPNPSKKRELAQITGLTPTQVGNWFKNRRQRDR [A31I], the abundance fitness rises from -0.892 ± 0.27 to -0.148 ± 0.1.

Going from CFKERTRSLLREWYLQDPYPNPSKKRELAQMTGLTPTQVGNWFKNRRQRDR [A31M] to CFKERTRSLLREWYLQDPYPNPSKKRELAQLTGLTPTQVGNWFKNRRQRDR [A31L], the abundance fitness rises from -0.087 ± 0.078 to 0.088 ± 0.065.

Compared with CFKERTRSLLREWYLQDPYPNPSKKRELAQHTGLTPTQVGNWFKNRRQRDR [A31H], CFKERTRSLLREWYLQDPYPNPSKKRELAQATGLVPTQVGNWFKNRRQRDR [T35V] is lower in abundance fitness: -0.062 ± 0.11 for the first, -0.842 ± 0.05 for the second.

CFKERTRSLLREWYLQDPYPNPSKKRELAQATGLPPTQVGNWFKNRRQRDR [T35P] and CFKERTRSLLREWYLQDPYPNPSKKRELAQATGLRPTQVGNWFKNRRQRDR [T35R] are within error of each other in abundance fitness: -0.894 ± 0.15 for the first, -0.704 ± 0.045 for the second.

CFKERTRSLLREWYLQDPYPNPSKKRELAQATGLAPTQVGNWFKNRRQRDR [T35A] and CFKERTRSLLREWYLQDPYPNPSKKRELAQATGLCPTQVGNWFKNRRQRDR [T35C] are within error of each other in abundance fitness: -0.861 ± 0.13 for the first, -0.645 ± 0.12 for the second.

CFKERTRSLLREWYLQDPYPNPSKKRELAQATGLMPTQVGNWFKNRRQRDR [T35M] and CFKERTRSLLREWYLQDPYPNPSKKRELAQATGLDPTQVGNWFKNRRQRDR [T35D] are within error of each other in abundance fitness: -0.715 ± 0.067 for the first, -0.697 ± 0.096 for the second.

CFKERTRSLLREWYLQDPYPNPSKKRELAQATGLKPTQVGNWFKNRRQRDR [T35K] and CFKERTRSLLREWYLQDPYPNPSKKRELAQATGLGPTQVGNWFKNRRQRDR [T35G] are within error of each other in abundance fitness: -0.726 ± 0.14 for the first, -0.827 ± 0.063 for the second.

First: CFKERTRSLLREWYLQDPYPNPSKKRELAQATGLWPTQVGNWFKNRRQRDR [T35W]
Second: CFKERTRSLLREWYLQDPYPNPSKKRELAQATGLSPTQVGNWFKNRRQRDR [T35S]
The abundance fitness of the first is lower: -0.848 ± 0.17 for the first, -0.044 ± 0.055 for the second.

CFKERTRSLLREWYLQDPYPNPSKKRELAQATGLEPTQVGNWFKNRRQRDR [T35E] and CFKERTRSLLREWYLQDPYPNPSKKRELAQATGLHPTQVGNWFKNRRQRDR [T35H] are within error of each other in abundance fitness: -0.809 ± 0.16 for the first, -0.763 ± 0.41 for the second.

Going from CFKERTRSLLREWYLQDPYPNPSKKRELAQATGLFPTQVGNWFKNRRQRDR [T35F] to CFKERTRSLLREWYLQDPYPNPSKKRELAQATGLNPTQVGNWFKNRRQRDR [T35N], the abundance fitness rises from -0.77 ± 0.37 to -0.259 ± 0.13.

Going from CFKERTRSLLREWYLQDPYPNPSKKRELAQATGLQPTQVGNWFKNRRQRDR [T35Q] to CFKERTRSLLREWYLQDPYPNPSKKRELAQATGLLPTQVGNWFKNRRQRDR [T35L], the abundance fitness falls from -0.252 ± 0.21 to -0.778 ± 0.069.

CFKERTRSLLREWYLQDPYPNPSKKRELAQAEGLTPTQVGNWFKNRRQRDR [T32E] and CFKERTRSLLREWYLQDPYPNPSKKRELAQADGLTPTQVGNWFKNRRQRDR [T32D] are within error of each other in abundance fitness: -0.908 ± 0.061 for the first, -0.96 ± 0.12 for the second.

Compared with CFKERTRSLLREWYLQDPYPNPSKKRELAQAKGLTPTQVGNWFKNRRQRDR [T32K], CFKERTRSLLREWYLQDPYPNPSKKRELAQASGLTPTQVGNWFKNRRQRDR [T32S] is higher in abundance fitness: -1.02 ± 0.18 for the first, -0.43 ± 0.059 for the second.

Compared with CFKERTRSLLREWYLQDPYPNPSKKRELAQAYGLTPTQVGNWFKNRRQRDR [T32Y], CFKERTRSLLREWYLQDPYPNPSKKRELAQAAGLTPTQVGNWFKNRRQRDR [T32A] is higher in abundance fitness: -1 ± 0.19 for the first, -0.399 ± 0.079 for the second.

CFKERTRSLLREWYLQDPYPNPSKKRELAQAIGLTPTQVGNWFKNRRQRDR [T32I] and CFKERTRSLLREWYLQDPYPNPSKKRELAQALGLTPTQVGNWFKNRRQRDR [T32L] are within error of each other in abundance fitness: -0.591 ± 0.14 for the first, -0.409 ± 0.072 for the second.

CFKERTRSLLREWYLQDPYPNPSKKRELAQAMGLTPTQVGNWFKNRRQRDR [T32M] and CFKERTRSLLREWYLQDPYPNPSKKRELAQAFGLTPTQVGNWFKNRRQRDR [T32F] are within error of each other in abundance fitness: -0.59 ± 0.11 for the first, -0.922 ± 0.26 for the second.

First: CFKERTRSLLREWYLQDPYPNPSKKRELAQANGLTPTQVGNWFKNRRQRDR [T32N]
Second: CFKERTRSLLREWYLQDPYPNPSKKRELAQAQGLTPTQVGNWFKNRRQRDR [T32Q]
The abundance fitness of the first is higher: -0.637 ± 0.2 for the first, -1.23 ± 0.39 for the second.

Compared with CFKERTRSLLREWYLQDPYPNPSKKRELAQAVGLTPTQVGNWFKNRRQRDR [T32V], CFKERTRSLLREWYLQDPYPNPSKKRELAQAWGLTPTQVGNWFKNRRQRDR [T32W] is lower in abundance fitness: -0.257 ± 0.072 for the first, -0.821 ± 0.11 for the second.

CFKERTRSLLREWYLQDPYPNPSKKRELAQAHGLTPTQVGNWFKNRRQRDR [T32H] and CFKERTRSLLREWYLQDPYPNPSKKRELAQACGLTPTQVGNWFKNRRQRDR [T32C] are within error of each other in abundance fitness: 0.036 ± 0.29 for the first, -0.026 ± 0.055 for the second.

CFKERTRSLLREWYLQDPYPNPSKKRELAQAPGLTPTQVGNWFKNRRQRDR [T32P] and CFKERTRSLLREWYLQDPYPNPSKKRELAQARGLTPTQVGNWFKNRRQRDR [T32R] are within error of each other in abundance fitness: -0.802 ± 0.2 for the first, -0.87 ± 0.1 for the second.

With CFKERTRSLLREWYLQDPYPNPSKKRELAQAGGLTPTQVGNWFKNRRQRDR [T32G] the abundance fitness was -0.903 ± 0.11.
